Data: patent US7026443

Biological target: HLA-A*1101 (human)
Experiment: competition with 125I-labelled standard peptide for purified HLA-A*1101, gel filtration
Details: not given

Binder | binding affinity ratio (IC50 of standard peptide / IC50 of test peptide) | relative binding ratio (IC50 of standard peptide / IC50 of test peptide) | binding affinity ratio (IC50 of standard peptide / IC50 of test peptide) (ratio to standard peptide) | binding affinity ratio (IC50 of the standard peptide / IC50 of the test peptide)
ELRHYSDSVY (modifications not checked) [HPV18 E6 77 …] | 0.0002 |  |  | 
AICIEKQSR (modifications not checked) [HPV16 E1 112 …] |  | 0.0057 |  | 
LTNILNVLK (modifications not checked) [HPV16 E1 191 …] |  |  | 0.42 | 
WTGRCMSCCR (modifications not checked) [… (HPV16 E6, position 139, 10 amino acids)] |  | 0.0008 |  | 
TGRCMSCCR (modifications not checked) [… (HPV16 E6, position 140, 9 amino acids)] |  | 0.0001 |  | 
RLKAICIEK (modifications not checked) [… (HPV16 E1, position 109, 9 amino acids)] |  |  |  | 0.051
NAKAAMLAK (modifications not checked) [HPV16 E1 202 …] |  |  | 0.0031 | 
CVQSTHVDIR (modifications not checked) [… (HPV16 E7, position 68, 10 amino acids)] |  | 0.0001 |  | 
AGHYRGQCH (modifications not checked) [HPV18 E6 131 …] | 0.0002 |  |  | 
GDTPEWIQR (modifications not checked) [HPV18 E1 position 341 peptide …] | 0.0002 |  |  | 
SCCRSSRTR (modifications not checked) [… (HPV16 E6, position 145, 9 amino acids)] |  | 0.0001 |  | 
NINAGTDSR (modifications not checked) [HPV16 E1 567 …] |  |  | 0.0002 | 
NVLKTSNAK (modifications not checked) [… (HPV16 E1, position 196, 9 amino acids)] |  |  |  | 0.0015
CCKCDSTLR (modifications not checked) [… (HPV16 E7, position 58, 9 amino acids)] |  | 0.0001 |  | 
SVICFVNSK (modifications not checked) [… (HPV16 E1, position 497, 9 amino acids)] |  |  |  | 0.0002
DSIPHAACH (modifications not checked) [HPV18 E6 58 …] | 0.0002 |  |  | 
KLRHLNEKR (modifications not checked) [HPV18 E6 117 …] | 0.0005 |  |  | 
SLFGMSLMK (modifications not checked) [… (HPV16 E1, position 484, 9 amino acids)] |  |  |  | 7.1
YCKQQLLRR (modifications not checked) [… (HPV16 E6, position 39, 9 amino acids)] |  | 0.0001 |  | 
PLCPEEKQR (modifications not checked) [… (HPV16 E6, position 116, 9 amino acids)] |  | 0.0005 |  | 
LVSMDVKHR (modifications not checked) [HPV16 E1 544 …] |  |  | 0.0089 | 
EGTGCNGWFY (modifications not checked) [HPV16 E1 11 …] |  | 0.0002 |  | 
TAQEAKQHR (modifications not checked) [… (HPV16 E1, position 72, 9 amino acids)] |  |  |  | 0.0025
LSLHEDEDK (modifications not checked) [HPV16 E1 620 …] |  |  | 0.0002 | 

Same assay, conditions: remark: other sources report otherwise

Binder | relative binding ratio (IC50 of standard peptide / IC50 of test peptide)
IVCPICSQK (modifications not checked) [… (HPV16 E7, position 89, 9 amino acids)] | 0.0065
GIVCPICSQK (modifications not checked) [… (HPV16 E7, position 88, 10 amino acids)] | 0.067
DLQPETTDLY (modifications not checked) [… (HPV16 E7, position 14, 10 amino acids)] | 0.0002

Biological target: HLA-A*0301 (human)
Experiment: competition with 125I-labelled standard peptide for purified HLA-A*0301, gel filtration
Details: not given

Binder | binding affinity ratio (IC50 of standard peptide / IC50 of test peptide) | relative binding ratio (IC50 of standard peptide / IC50 of test peptide) | relative binding ratio (IC50 of standard peptide / IC50 of test peptide) (ratio to standard peptide)
LTNILNVLK (modifications not checked) [HPV16 E1 191 …] | 0.0086 |  | 
SIPHAACHK (modifications not checked) [HPV18 E6 peptide … (position 59, 9 amino acids)] |  | 0.017 | 
PLNPAEKLR (modifications not checked) [HPV18 E6 peptide … (position 111, 9 amino acids)] |  | 0.0002 | 
KLRHLNEKR (modifications not checked) [HPV18 E6 peptide … (position 117, 9 amino acids)] |  |  | 0.025
LVSMDVKHR (modifications not checked) [HPV16 E1 544 …] | 0.0005 |  | 
LSLHEDEDK (modifications not checked) [HPV16 E1 620 …] | 0.0005 |  | 

Biological target: HLA-A*1101 (human)
Experiment: competition with 125I-labelled standard peptide for purified HLA, gel filtration
Details: not given

Binder | relative binding ratio (IC50 of standard peptide / IC50 of test peptide)
LTEVFEFAFK (modifications not checked) [HPV18 E6 peptide … (position 41, 10 amino acids)] | 0.036
SIPHAACHK (modifications not checked) [HPV18 E6 peptide … (position 59, 9 amino acids)] | 0.12
PLNPAEKLR (modifications not checked) [HPV18 E6 peptide … (position 111, 9 amino acids)] | 0.0005
SVYGDTLEK (modifications not checked) [HPV18 E6 peptide … (position 84, 9 amino acids)] | 0.23
KLRHLNEKR (modifications not checked) [HPV18 E6 peptide … (position 117, 9 amino acids)] | 0.0005
LLIRCLRCQK (modifications not checked) [HPV18 E6 peptide … (position 101, 10 amino acids)] | 0.12
NTGLYNLLIR (modifications not checked) [HPV18 E6 peptide … (position 95, 10 amino acids)] | 0.0013
LIRCLRCQK (modifications not checked) [HPV18 E6 peptide … (position 102, 9 amino acids)] | 0.0012

Biological target: HLA-A*0301 (human)
Experiment: as above
Details: not given

Binder | relative binding ratio (IC50 of standard peptide / IC50 of test peptide)
LTEVFEFAFK (modifications not checked) [HPV18 E6 peptide … (position 41, 10 amino acids)] | 0.0001
SIPHAACHK (modifications not checked) [HPV18 E6 peptide … (position 59, 9 amino acids)] | 0.017
PLNPAEKLR (modifications not checked) [HPV18 E6 peptide … (position 111, 9 amino acids)] | 0.0002
SVYGDTLEK (modifications not checked) [HPV18 E6 peptide … (position 84, 9 amino acids)] | 0.08
KLRHLNEKR (modifications not checked) [HPV18 E6 peptide … (position 117, 9 amino acids)] | 0.025
LLIRCLRCQK (modifications not checked) [HPV18 E6 peptide … (position 101, 10 amino acids)] | 0.047
NTGLYNLLIR (modifications not checked) [HPV18 E6 peptide … (position 95, 10 amino acids)] | 0.0002
LIRCLRCQK (modifications not checked) [HPV18 E6 peptide … (position 102, 9 amino acids)] | 0.019

Biological target: HLA-A*0201 (human)
Experiment: competition with 125I-labelled standard peptide for purified HLA-A*0201, gel filtration
Details: not given

Binder | binding affinity ratio (IC50 of the standard peptide / IC50 of the test peptide)
FIQGAVISFV (modifications not checked) [HPV18 E1 peptide … (position 500, 10 amino acids)] | 0.046
FIHFIQGAVI (modifications not checked) [HPV18 E1 peptide … (position 497, 10 amino acids)] | 0.0057
GTGCNGWFYV (modifications not checked) [HPV18 E1 peptide … (position 11, 10 amino acids)] | 0.0006
DLFVVYRDSI (modifications not checked) [HPV18 E6 51 …] | 0.0001
DTLEKLTNT (modifications not checked) [HPV18 E6 88 …] | 0.0001

Biological target: HLA-A*0301 (human)
Experiment: not given
Details: not given

Binder | relative binding ratio (IC50 of standard peptide / IC50 of test peptide)
LTEVFEFAFK (modifications not checked) [HPV18 E6 peptide … (position 41, 10 amino acids)] | 0.0001
SVYGDTLEK (modifications not checked) [HPV18 E6 peptide … (position 84, 9 amino acids)] | 0.08
LLIRCLRCQK (modifications not checked) [HPV18 E6 peptide … (position 101, 10 amino acids)] | 0.047
NTGLYNLLIR (modifications not checked) [HPV18 E6 peptide … (position 95, 10 amino acids)] | 0.0002
LIRCLRCQK (modifications not checked) [HPV18 E6 peptide … (position 102, 9 amino acids)] | 0.019
